{
  "source": "paper PMC9586334",
  "about": "(Proceedings of the National Academy of Sciences of the …, 2022)",
  "target": "T1, FhuA, outer membrane TonB-dependent transporter of E. coli (mature part, His10-TEV construct) (E. coli, UniProt P06971 34-747)",
  "T1 construct": "FhuA of E. coli, the mature part, amplified from E. coli genomic DNA; No TEV cleavage is told for the SEC and cryo-EM samples; also called wild-type FhuA; free FhuA; source: E. coli Bl21 (DE3) Δcyo, alone or co-overexpressed with Llp, purified (IMAC, SEC, in detergent)",
  "T1 sequence (looked up)": "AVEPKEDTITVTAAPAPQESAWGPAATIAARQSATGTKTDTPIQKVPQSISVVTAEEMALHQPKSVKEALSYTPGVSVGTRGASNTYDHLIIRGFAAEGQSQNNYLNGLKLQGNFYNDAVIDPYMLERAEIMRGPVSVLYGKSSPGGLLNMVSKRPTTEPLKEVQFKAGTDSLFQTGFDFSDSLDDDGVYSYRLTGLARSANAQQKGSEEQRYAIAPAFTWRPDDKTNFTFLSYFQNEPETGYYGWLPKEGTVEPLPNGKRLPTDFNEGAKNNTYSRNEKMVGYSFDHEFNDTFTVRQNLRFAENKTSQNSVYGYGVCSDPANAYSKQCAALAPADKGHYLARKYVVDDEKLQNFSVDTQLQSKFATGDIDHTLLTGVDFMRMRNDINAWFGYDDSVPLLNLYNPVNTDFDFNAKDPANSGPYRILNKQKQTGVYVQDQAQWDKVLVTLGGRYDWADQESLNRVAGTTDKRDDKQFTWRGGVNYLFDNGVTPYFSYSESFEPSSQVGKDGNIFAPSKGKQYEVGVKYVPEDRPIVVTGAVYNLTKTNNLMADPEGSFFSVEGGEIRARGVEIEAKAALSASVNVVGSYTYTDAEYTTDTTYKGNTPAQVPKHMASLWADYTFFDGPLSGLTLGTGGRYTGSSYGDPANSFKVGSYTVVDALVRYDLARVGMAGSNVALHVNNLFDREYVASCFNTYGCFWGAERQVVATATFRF",
  "assay": "SEC; complex assembled in vivo by co-overexpression in E. coli, purified by IMAC and then gel filtration (Superdex-200, 10 mM Hepes, 100 mM NaCl, 0.05% LDAO, pH 7.5); fractions on SDS-PAGE",
  "conditions": "partners not purified",
  "note": "Positions of bridges follow the written chain, without caps; N, C: chain ends. lipid anchor = not defined here",
  "data": [
    {"binder": "Llp, superinfection exclusion lipoprotein of bacteriophage T5 (natural protein, UniProt Q38162 16-77, looked up, disulfide 11-58; reading uncertain, Llp of bacteriophage T5, codon-optimized synthetic gene in the arabinose-inducible vector pB22; Lipoprotein; also called lytic conversion protein; SE lipoprotein; source: E. coli Bl21 (DE3) Δcyo, alone or co-overexpressed with FhuA, purified from membranes (IMAC, SEC, in detergent)) C(lipid anchor)STFGPKDIKCEAYYMQDHVKYKANVFDRKGDMFLVSPIMAYGSFWAPVSYFTEGNTCEGVF", "values": [
      {"measurement": "binding result", "value": "binds"}
    ]}
  ]
}
